According to patent US20260150817A1:

Molecular target: Spike protein of the COVID-19 Spike-ACE2 Binding Assay Kit (Raybiotech) (SARS-CoV-2) (UniProt P0DTC2)

Substance: human SAT Nb-Fc control VH-Ab-8 (HAb8-S) (Fc fusion)
- IC50: 79 pM
